Test results published in patent US5955329.
Where a chain is given by its changes, count along the chain named. In names and notes the source's numbering stands.

Assays:
[1] = biological target: California bay (Umbellularia californica) C12 preferring acyl-ACP thioesterase, wild type, mature protein from pCGN3823 (California bay (Umbellularia californica)); experiment: inhibition of 14:0-ACP thioesterase activity; 5 µM cold 12:0-ACP against 5 µM 14C labeled 14:0-ACP as competitor
[2] = biological target: bay thioesterase triple mutant M197R/R199H/T231K (California bay (Umbellularia californica)); experiment: as above
[3] = biological target: California bay (Umbellularia californica) C12 preferring acyl-ACP thioesterase, wild type, mature protein from pCGN3823 (California bay (Umbellularia californica)); experiment: inhibition kinetics of thioesterase activity; slope inhibition constant of 12:0-ACP with 14:0-ACP as varied substrate
[4] = biological target: bay thioesterase triple mutant M197R/R199H/T231K (California bay (Umbellularia californica)); experiment: as above
[5] = biological target: California bay (Umbellularia californica) C12 preferring acyl-ACP thioesterase, wild type, mature protein from pCGN3823 (California bay (Umbellularia californica)); experiment: inhibition of 14:0-ACP thioesterase activity; 25 µM cold 12:0-ACP against 5 µM 14C labeled 14:0-ACP as competitor
[6] = biological target: bay thioesterase triple mutant M197R/R199H/T231K (California bay (Umbellularia californica)); experiment: as above
14:0-ACP [7] = biological target: 14:0-ACP
16:0 acyl-ACP [8] = biological target: 16:0 acyl-ACP
18:0 acyl-ACP [9] = biological target: 18:0 acyl-ACP
16:0 acyl-ACP [10] = biological target: 16:0 acyl-ACP; remark: listed apart in the source
18:0 acyl-ACP [11] = biological target: 18:0 acyl-ACP; remark: listed apart in the source
12:0-ACP [12] = biological target: 12:0-ACP
14:0-ACP [13] = biological target: 14:0-ACP; remark: listed apart in the source
12:0-ACP [14] = biological target: 12:0-ACP; remark: listed apart in the source
12:0-ACP [15] = biological target: 12:0-ACP; remark: listed apart in the source
14:0-ACP [16] = biological target: 14:0-ACP; remark: listed apart in the source
[17] = biological target: acyl-ACP substrates (chain length not stated for this assay)

Molecule: 12:0-ACP
- Inhibition (%) [1]: 53%
- Inhibition (%) [2]: 48%
- Ki [3]: 10.2 µM
- Ki [4]: 11.6 µM
- Inhibition (%) [5]: 78%
- Inhibition (%) [6]: 76%

Molecule: Cuphea palustris Class II acyl-ACP thioesterase CpFatB1 (MCT29), mature region as lacZ fusion protein (MCT29LZ) (enzyme)
- acyl-ACP thioesterase activity (% of the C8-ACP activity) (14:0-ACP [7]): 10

Molecule: Cuphea palustris Class II acyl-ACP thioesterase CpFatB2 (MCT34), mature region as lacZ fusion protein (MCT34LZ) (enzyme)
- acyl-ACP thioesterase activity (% of the C14-ACP activity) (16:0 acyl-ACP [8]): 30

Molecule: mangosteen (Garcinia mangifera) Class I acyl-ACP thioesterase GarmFatA1, wild type (enzyme)
- Acyl-ACP Thioesterase activity (cpm/min) (18:0 acyl-ACP [9]): 23900 cpm/min
- Acyl-ACP Thioesterase activity (cpm/min) (18:1 acyl-ACP): 87400 cpm/min
- Acyl-ACP Thioesterase activity (cpm/min) (16:0 acyl-ACP [10]): 4370 cpm/min

Molecule: mangosteen GarmFatA1 mutant D261K (enzyme)
- thioesterase activity, preference 18:0/18:1 (% (18:0/18:1)) (18:0 acyl-ACP [11]): 35

B1: California bay (Umbellularia californica) C12 preferring acyl-ACP thioesterase, wild type, mature protein from pCGN3823 (enzyme)
chain: LEWKPKPKLPQLLDDHFGLHGLVFRRTFAIRSYEVGPDRSTSILAVMNHMQEATLNHAKSVGILGDGFGTTLEMSKRDLMWVVRRTHVAVERYPTWGDTVEVECWIGASGNNGMRRDFLVRDCKTGEILTRCTSLSVLMNTRTRRLSTIPDEVRGEIGPAFIDNVAVKDDEIKKLQKLNDSTADYIQGGLTPRWNDLDVNQHVNNLKYVAWVFETVPDSIFESHHISSFTLEYRRECTRDSVLRSLTTVSGGSSEAGLVCDHLLQLEGGSEVLRARTEWRPKLTDSFRGISVIPAEPRV
- Km,app (12:0-ACP [12]): 1.9 µM
- Km,app (14:0-ACP [13]): 6.4 µM

B2: bay thioesterase triple mutant M197R/R199H/T231K (enzyme)
chain: B1 chain with M114R, R116H, T148K
- Km,app (14:0-ACP [13]): 2.3 µM

B3: bay thioesterase mutant M197R/R199H (enzyme)
chain: B1 chain with M114R, R116H
- thioesterase activity (12:0-ACP [14]): 7 fold reduced

B4: bay thioesterase mutant R327Q (enzyme)
chain: B1 chain with R244Q
- thioesterase specific activity (fold decrease) (12:0-ACP [15]): 100
- thioesterase specific activity (fold decrease) (14:0-ACP [16]): 30

B5: bay thioesterase mutant R322M/R327Q (enzyme)
chain: B1 chain with R239M, R244Q
- thioesterase specific activity (fold decrease) (12:0-ACP [15]): 100
- thioesterase specific activity (fold decrease) (14:0-ACP [16]): 30

B6: bay thioesterase mutant C320S (enzyme)
chain: B1 chain with C237S
- thioesterase activity (% of the wild-type activity) [17]: 80
